{"source": "paper PMC3638396", "about": "(Philosophical Transactions of the Royal Society B: …, 2013)", "binders": {"B1": {"name": "Ure2p (natural protein, Saccharomyces cerevisiae, UniProt P23202 1-354, looked up)", "chain": "MMNNNGNQVSNLSNALRQVNIGNRNSNTTTDQSNINFEFSTGVNNNNNNNSSSNNNNVQNNNSGRNGSQNNDNENNIKNTLEQHRQQQQAFSDMSHVEYSRITKFFQEQPLEGYTLFSHRSAPNGFKVAIVLSELGFHYNTIFLDFNLGEHRAPEFVSVNPNARVPALIDHGMDNLSIWESGAILLHLVNKYYKETGNPLLWSDDLADQSQINAWLFFQTSGHAPMIGQALHFRYFHSQKIASAVERYTDEVRRVYGVVEMALAERREALVMELDTENAAAYSAGTTPMSQSRFFDYPVWLVGDKLTIADLAFVPWNNVVDRIGINIKIEFPEVYKWTKHMMRRPAVIKALRGE", "notes": "Ure2p, the protein determinant of the Saccharomyces cerevisiae prion state [URE3]; a 354-residue protein; One construct used in two states: native soluble protein (DLS, solution phase of QCM) and sonicated fibril seeds (co-sedimentation, QCM sensor; seeds treated with Traut's reagent for the sensor); The state is told in each assay's format; also called native Ure2p; soluble Ure2p; source: …"}}, "key": {"[1]": {"target": "the molecule itself", "assay": "quartz crystal microbalance; sonicated Ure2p fibril seeds attached to the gold sensor by Traut's reagent; 1 μM soluble Ure2p introduced, measured without flow; Tris buffer pH 8.4; elongation of the surface-bound seeds"}, "[2]": {"target": "T1, WT Ssa1p (yeast (S. cerevisiae), UniProt P10591 1-642)", "T1 construct": "Ssa1p, yeast HSP70 family member, residues 1-642 (NBD, SBD, CTD); also called wild-type Ssa1p; full-length Ssa1p; source: plasmid pPROEX-HTb-Ssa1", "T1 sequence (P10591 whole entry, the tested form may be a part)": "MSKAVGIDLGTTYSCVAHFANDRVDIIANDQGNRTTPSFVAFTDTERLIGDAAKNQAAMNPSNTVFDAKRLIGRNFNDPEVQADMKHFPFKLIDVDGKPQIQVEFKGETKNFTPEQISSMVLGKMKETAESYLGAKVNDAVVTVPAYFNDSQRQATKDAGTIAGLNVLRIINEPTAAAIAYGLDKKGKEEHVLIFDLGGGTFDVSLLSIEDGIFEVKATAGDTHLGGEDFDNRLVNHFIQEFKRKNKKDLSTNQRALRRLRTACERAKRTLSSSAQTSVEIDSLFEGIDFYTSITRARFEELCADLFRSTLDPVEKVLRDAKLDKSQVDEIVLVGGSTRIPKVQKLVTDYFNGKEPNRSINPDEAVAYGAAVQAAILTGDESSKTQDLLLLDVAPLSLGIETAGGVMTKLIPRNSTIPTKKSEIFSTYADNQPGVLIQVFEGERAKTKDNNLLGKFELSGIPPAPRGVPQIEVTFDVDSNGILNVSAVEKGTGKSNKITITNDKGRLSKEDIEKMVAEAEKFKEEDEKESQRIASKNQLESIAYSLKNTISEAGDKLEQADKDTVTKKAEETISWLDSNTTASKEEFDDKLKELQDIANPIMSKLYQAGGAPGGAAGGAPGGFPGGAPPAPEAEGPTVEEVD", "assay": "co-sedimentation; called 'pull-down assay' / 'filament pull-down assay': 10 μM Ure2p fibril seeds with 20 μM WT or ΔA Ssa1p, Tris buffer pH 8.4, 30°C, 2 h; centrifuged through 40 per cent sucrose at 61 000 rpm, 30 min, 4°C; washed pellets on SDS-PAGE", "settings": "both partners purified"}}, "data": [{"binder": "B1", "values": [{"measurement": "binding result", "setting": "[1]", "value": "binds"}, {"measurement": "binding result", "setting": "[2]", "value": "binds"}]}]}
